Measured values published in patent publication US20230189844.

How the values were obtained:
[1] = target: Soybean agglutinin (SBA) (UniProt P05046)
[2] = target: T1, Soy Bowman-Birk Inhibitor (UniProt P01055)
T1 sequence: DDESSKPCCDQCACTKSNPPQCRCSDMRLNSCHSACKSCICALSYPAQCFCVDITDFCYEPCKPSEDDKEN

[3] = target: T2, Soy Kunitz Inhibitor (Trypsin Inhibitor from soybean) (UniProt P01070)
T2 sequence: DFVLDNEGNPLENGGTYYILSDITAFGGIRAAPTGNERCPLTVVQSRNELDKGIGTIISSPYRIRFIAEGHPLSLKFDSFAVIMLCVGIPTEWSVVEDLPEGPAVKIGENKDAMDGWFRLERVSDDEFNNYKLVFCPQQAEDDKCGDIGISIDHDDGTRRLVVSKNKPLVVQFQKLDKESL

Sequence of Soybean agglutinin (SBA) (P05046 33-285): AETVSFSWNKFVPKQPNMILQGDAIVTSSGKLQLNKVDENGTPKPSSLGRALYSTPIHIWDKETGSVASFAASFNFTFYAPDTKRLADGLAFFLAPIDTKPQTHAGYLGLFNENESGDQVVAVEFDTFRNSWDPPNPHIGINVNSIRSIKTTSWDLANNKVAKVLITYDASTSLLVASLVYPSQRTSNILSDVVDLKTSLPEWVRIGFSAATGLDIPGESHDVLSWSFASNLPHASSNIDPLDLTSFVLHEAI

Substance: Protease derived from Bacillus sp. NCIMB 40484
- % of anti-nutritional factor degraded (SDS-PAGE band disappearance, 2 hours, 37° C., pH 6.5) [1]: 21%
- % of anti-nutritional factor degraded (SDS-PAGE band disappearance, 2 hours, 37° C., pH 6.5) [2]: 41%
- % of anti-nutritional factor degraded (SDS-PAGE band disappearance, 2 hours, 37° C., pH 6.5) [3]: 100%
